For the data set, the system named is HK-2 cells. Nature of the data set: Sepsis-associated AKI model: cell-free hemoglobin-treated HK-2 cells, MTT, LDH, CC3, Ki-67, MDA. Type of data set: cell-based. The protocol: Immortalized human cortical and proximal tubular epithelial (HK-2) cells were cultured in DMEM-F-12 with FBS [10% (wt/vol)] (Life Technologies, Carlsbad, CA), Insulin-Transferrin-Selenium (ITS) (Corning, Corning, NY), hydrocortisone (0.1 μM), and 1% Penicillin/Streptomycin. […] To induce the sepsis-associated AKI model, cells at confluence were exposed to 1 mg/ml purified cell-free hemoglobin (CFH) for 48 h. For all experiments, we used CFH purified from normal human blood by high pressure liquid chromatography (Pishchany, G., et al. J Vis Exp. 2013 Feb. 7 (72): 50072). After 48 h, the control or treated cells were harvested for immunostaining or assays. In both models, culture media was replaced after 48 h. For iNP-EV treatment, 10 μg of EVs was added to cells for the next 24 h.
The organoids were washed with PBS and then treated with MTT (3-(4,5-dimethylthiazol-2-yl)-2,5-diphenyltetrazolium bromide) reagent (Sigma-Aldrich) (1 mg/ml) for at least 60 min, leading to the purple formazan formation in living cells. The reagents were then removed and isopropanol was added to dissolve the insoluble formazan. The absorbance of the colored solution was measured using a microplate reader at 560 nm and 690 nm. Background absorbance at 690 nm was subtracted from absorbance at 560 nm and the O.D. values were plotted to measure cell viability.
LDH release from the cells was evaluated using CyQUANT™ LDH Cytotoxicity Assay Kit. Briefly, cell culture medium was collected for other purposes at 48 h after the treatment. The cells were treated with 10% Triton X-100 and incubated for 15 min before to obtain the maximum LDH release from the sample. Cell culture media was collected and 50 μl of each sample was transferred into a 96-well opaque-walled, non-transparent assay plate. The LDH detection reagent was prepared by combining the LDH detection enzyme mix and reductase substrate. Then 50 μl of detection reagent was added to each well. The wells were incubated for 60 min at room temperature. […] was recorded on a plate reader at 490 nm and the corresponding O.D. was plotted to quantify cell death.

Where [1] appears, read: HK-2, 1 mg/ml CFH 48 h vs control.

For “CFH: cell-free hemoglobin purified from normal human blood by high pressure liquid chromatography; induces sepsis-associated AKI model”, where the note is “HK-2, 1 mg/ml CFH 48 h, without CFH ~3.5 μM, p<0.0001”, the “concentration of Malondialdehyde (MDA), lipid peroxidation” value turned out to be 22.5 µM. For the same substance, under setting [1], the “cleaved caspase-3 staining” value is “increased” and the “proliferation by Ki-67 staining” value is reported as “not different between the groups”. In addition, the LDH release entry (HK-2, 1 mg/ml CFH 48 h vs control, p<0.005) is listed as “higher LDH release”. Also, where the note is “HK-2, 1 mg/ml CFH 48 h vs control, p=0.0001”, the “viability (MTT assay)” value was “substantial decline in viability”.

The values are drawn from patent US20250221941A1, “NEPHRON PROGENITOR EXOSOMES” (VANDERBILT UNIVERSITY, priority 2021, published 2025).
